{"source": "patent US20050187160A1", "biological_target": "T1, rabbit GH receptor (full length, stably expressed on murine FDC-P1 cells, GH-R4 line) (rabbit) (UniProt P19941)", "T1 sequence (looked up)": "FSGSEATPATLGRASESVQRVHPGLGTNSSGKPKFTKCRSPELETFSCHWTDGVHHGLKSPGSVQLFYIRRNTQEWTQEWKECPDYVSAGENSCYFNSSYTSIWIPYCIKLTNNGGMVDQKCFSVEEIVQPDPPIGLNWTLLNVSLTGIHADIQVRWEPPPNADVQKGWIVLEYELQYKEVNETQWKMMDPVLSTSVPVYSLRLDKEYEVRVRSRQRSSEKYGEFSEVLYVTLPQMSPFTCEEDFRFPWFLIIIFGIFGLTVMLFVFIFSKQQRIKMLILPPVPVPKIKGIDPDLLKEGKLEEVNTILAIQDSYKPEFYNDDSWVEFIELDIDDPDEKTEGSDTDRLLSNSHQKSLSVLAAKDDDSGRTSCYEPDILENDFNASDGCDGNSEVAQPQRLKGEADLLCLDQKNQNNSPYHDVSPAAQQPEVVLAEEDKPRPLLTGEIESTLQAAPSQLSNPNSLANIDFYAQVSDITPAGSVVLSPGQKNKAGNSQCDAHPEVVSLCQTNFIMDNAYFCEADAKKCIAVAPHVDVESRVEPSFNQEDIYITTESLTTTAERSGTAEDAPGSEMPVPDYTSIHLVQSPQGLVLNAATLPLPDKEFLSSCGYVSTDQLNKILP", "assay": "cell-based or functional assay", "note": "Values joined by “and” are separate entries in the source; they are usually repeats but may differ in a detail not shown here. Identical values can stand only once.", "data": [{"substance": "PEG-S144C hGH (mono-PEGylated S144C) (from UniProt P01241 27-217) (ligand)", "values": [{"measurement": "EC50, individual experiment, cell proliferation assay (Example 1)", "result": "40 ng/mL and 45 ng/mL"}, {"measurement": "mean EC50 (molar form), cell proliferation assay (Example 1)", "result": 2, "unit": "nM"}]}, {"substance": "PEG-T3C hGH (mono-PEGylated T3C monomer) (from UniProt P01241 27-217) (ligand)", "values": [{"measurement": "mean EC50 (molar form), cell proliferation assay (Example 1)", "result": 0.07, "unit": "nM"}]}, {"substance": "hGH cysteine mutein S144C (from UniProt P01241 27-217) (ligand)", "values": [{"measurement": "EC50, individual experiment (second value), proliferation of FDC-P1 cells expressing the rabbit GH receptor", "result": 1.1, "unit": "ng/mL"}, {"measurement": "Mean EC50, proliferation of FDC-P1 cells expressing the rabbit GH receptor (GH-R4), MTS", "result": 1.6, "unit": "ng/mL"}]}, {"substance": "hGH cysteine mutein T3C, disulfide-linked homodimer (from UniProt P01241 27-217) (ligand)", "values": [{"measurement": "Mean EC50, proliferation of FDC-P1 cells expressing the rabbit GH receptor (GH-R4), MTS", "result": 1.4, "unit": "ng/mL"}]}, {"substance": "hGH cysteine mutein T148C (from UniProt P01241 27-217) (ligand)", "values": [{"measurement": "EC50, individual experiment (T148C-lotA), proliferation of FDC-P1 cells expressing the rabbit GH receptor", "result": "0.4 ng/mL and 0.5 ng/mL"}, {"measurement": "EC50, individual experiment (T148C-lotB), proliferation of FDC-P1 cells expressing the rabbit GH receptor", "result": "1.5 ng/mL and 1.9 ng/mL and 3.1 ng/mL"}, {"measurement": "Mean EC50 (T148C-lotA), proliferation of FDC-P1 cells expressing the rabbit GH receptor (GH-R4), MTS", "result": 0.5, "unit": "ng/mL"}, {"measurement": "Mean EC50 (T148C-lotB), proliferation of FDC-P1 cells expressing the rabbit GH receptor (GH-R4), MTS", "result": 2.5, "unit": "ng/mL"}]}, {"substance": "wild-type recombinant human growth hormone (rhGH) secreted to the E. coli periplasm from stII-hGH (from UniProt P01241 27-217) (ligand)", "values": [{"measurement": "EC50, individual experiment, proliferation of FDC-P1 cells expressing the rabbit GH receptor", "result": "0.8 ng/mL and 1.1 ng/mL"}, {"measurement": "Mean EC50, proliferation of FDC-P1 cells expressing the rabbit GH receptor (GH-R4), MTS", "result": 0.8, "unit": "ng/mL"}]}]}
